The values below come from paper PMC2730992 (Molecular and biochemical parasitology, 2009).

Test [1] deals with T. cruzi S-adenosylmethionine decarboxylase (AdoMetDC), His6-tagged (Trypanosoma cruzi).
The target in test [2] is T. brucei S-adenosylmethionine decarboxylase (AdoMetDC), His6-tagged (Trypanosoma brucei).
Test [3] addresses T. cruzi S-adenosylmethionine decarboxylase (AdoMetDC), His6-tagged (Trypanosoma cruzi). The source holds these as a separate data set.
The target in test [4] is T1, TcAdoMetDC (T. cruzi AdoMetDC homodimer) (Trypanosoma cruzi, UniProt O76240).
T1 sequence (O76240 1-85): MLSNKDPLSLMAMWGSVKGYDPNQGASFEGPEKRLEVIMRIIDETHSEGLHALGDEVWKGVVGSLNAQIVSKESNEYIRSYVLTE
T1 sequence (O76240 86-370): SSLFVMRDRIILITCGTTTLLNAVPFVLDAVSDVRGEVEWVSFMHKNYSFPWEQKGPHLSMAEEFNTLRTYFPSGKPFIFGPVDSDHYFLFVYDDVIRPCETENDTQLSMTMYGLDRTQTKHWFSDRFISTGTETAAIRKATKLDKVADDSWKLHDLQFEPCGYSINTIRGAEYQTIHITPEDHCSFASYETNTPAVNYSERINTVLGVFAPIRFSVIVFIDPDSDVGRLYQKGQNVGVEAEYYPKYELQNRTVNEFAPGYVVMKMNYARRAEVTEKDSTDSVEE
The test is described as follows: activation of AdoMet decarboxylation, […]CO2 trapping. Type of test: biochemical. The note with it: 5 mM putrescine; allosteric activator; pH 8.0, 37 °C.

In test [1], “T. brucei prozyme, His6-tagged (natural protein)” returned an increase of T. cruzi AdoMetDC activity by T. brucei prozyme, no putrescine of 70 fold.
For “T. cruzi prozyme, His6-tagged (natural protein)”, in test [2], the stimulation of T. brucei AdoMetDC activity by T. cruzi prozyme, no putrescine is 60 fold.
Consider “T. cruzi prozyme, untagged (natural protein)”, for which, in test [3], the kcat/Km of AdoMet decarboxylation, co-purified heterodimer, 5 mM putrescine came to 5100 M⁻¹ s⁻¹ and the kcat/Km of AdoMet decarboxylation, co-purified heterodimer, no putrescine turned out to be 1030 M⁻¹ s⁻¹.
As to `NCCCCN` [putrescine], the “activation of AdoMet decarboxylation, 14CO2 trapping” value in test [4] is reported as “the T. cruzi AdoMetDC enzyme was stimulated by putrescine”.
